Assay results: patent US20220056517A1 (OXFORD NANOPORE TECHNOLOGIES, published 2022)

Legend:
[1] = target: T1, CsgG Y51S/N55A/F56Q/N91R/K94Q/R97W-del(V105-I107) pore (E. coli, UniProt P0AEA2 16-277); test: pore 7; in vitro reconstitution; DNA translocation, signal:noise
T1 chain: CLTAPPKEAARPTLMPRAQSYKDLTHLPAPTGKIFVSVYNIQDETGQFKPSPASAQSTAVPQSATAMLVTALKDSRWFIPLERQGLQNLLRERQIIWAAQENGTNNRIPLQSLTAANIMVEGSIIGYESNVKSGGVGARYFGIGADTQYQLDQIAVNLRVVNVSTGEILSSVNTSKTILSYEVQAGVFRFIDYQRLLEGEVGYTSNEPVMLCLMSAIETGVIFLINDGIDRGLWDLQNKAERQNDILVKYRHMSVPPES

[2] = target: T2, CsgG Y51A/F56A/N91R/K94Q/R97W-del(V105-I107) pore containing the C terminal strep tag (E. coli, UniProt P0AEA2 16-277); test: pore 4; in vitro reconstitution; DNA translocation, signal:noise
T2 construct: not shown: C-terminal Strep tag
T2 chain: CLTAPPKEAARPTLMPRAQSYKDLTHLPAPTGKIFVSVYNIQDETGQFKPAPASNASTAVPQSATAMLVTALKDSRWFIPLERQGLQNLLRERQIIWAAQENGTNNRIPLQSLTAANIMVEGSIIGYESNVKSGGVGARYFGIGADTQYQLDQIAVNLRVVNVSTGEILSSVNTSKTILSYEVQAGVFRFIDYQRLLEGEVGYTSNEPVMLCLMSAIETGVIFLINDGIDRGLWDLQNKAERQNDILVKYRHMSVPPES

[3] = target: T3, CsgG Y51A/F56V/N91R/K94Q/R97W-del(V105-I107) pore (E. coli, UniProt P0AEA2 16-277); test: pore 6; in vitro reconstitution; DNA translocation, signal:noise
T3 chain: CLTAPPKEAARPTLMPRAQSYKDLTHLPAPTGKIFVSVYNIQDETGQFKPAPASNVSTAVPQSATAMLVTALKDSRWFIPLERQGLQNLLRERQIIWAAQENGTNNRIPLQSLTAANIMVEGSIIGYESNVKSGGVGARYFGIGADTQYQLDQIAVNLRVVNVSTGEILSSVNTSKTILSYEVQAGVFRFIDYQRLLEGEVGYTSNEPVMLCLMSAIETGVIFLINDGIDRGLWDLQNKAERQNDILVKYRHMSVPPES

[4] = target: T4, CsgG Y51T/N55V/F56Q/N91R/K94Q/R97W-del(V105-I107) pore containing the C terminal strep tag (E. coli, UniProt P0AEA2 16-277); test: pore 9; in vitro reconstitution; DNA translocation, signal:noise
T4 construct: not shown: C-terminal Strep tag
T4 chain: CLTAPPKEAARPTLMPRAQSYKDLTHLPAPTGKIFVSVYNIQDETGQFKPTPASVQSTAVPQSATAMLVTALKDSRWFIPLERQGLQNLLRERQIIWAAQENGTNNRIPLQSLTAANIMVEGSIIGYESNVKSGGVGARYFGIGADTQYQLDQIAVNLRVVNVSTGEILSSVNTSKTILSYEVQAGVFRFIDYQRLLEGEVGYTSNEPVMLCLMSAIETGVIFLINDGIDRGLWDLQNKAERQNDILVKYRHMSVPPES

[5] = target: T5, CsgG Y51A/N55I/F56Q/N91R/K94Q/R97W-del(V105-I107) pore containing the C terminal strep tag (E. coli, UniProt P0AEA2 16-277); test: pore 2; in vitro reconstitution; DNA translocation, signal:noise
T5 construct: also called Y51A/N551/F56Q/N91R/K94Q/R97W-del(V105-I107) (sic); not shown: C-terminal Strep tag
T5 chain: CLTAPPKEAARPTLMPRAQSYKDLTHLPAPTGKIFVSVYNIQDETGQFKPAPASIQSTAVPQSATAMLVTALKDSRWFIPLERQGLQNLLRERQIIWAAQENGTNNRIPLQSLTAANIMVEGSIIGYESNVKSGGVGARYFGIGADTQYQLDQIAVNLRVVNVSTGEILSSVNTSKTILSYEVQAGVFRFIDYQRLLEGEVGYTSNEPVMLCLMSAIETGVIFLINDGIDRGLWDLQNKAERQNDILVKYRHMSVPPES

[6] = target: T6, CsgG Y51A/F56Q/N91R/K94Q/R97W-del(V105-I107) pore containing the C terminal strep tag (E. coli, UniProt P0AEA2 16-277); test: pore 1; in vitro reconstitution; DNA translocation, signal:noise
T6 construct: Oligomeric CsgG pore; not shown: C-terminal Strep tag
T6 chain: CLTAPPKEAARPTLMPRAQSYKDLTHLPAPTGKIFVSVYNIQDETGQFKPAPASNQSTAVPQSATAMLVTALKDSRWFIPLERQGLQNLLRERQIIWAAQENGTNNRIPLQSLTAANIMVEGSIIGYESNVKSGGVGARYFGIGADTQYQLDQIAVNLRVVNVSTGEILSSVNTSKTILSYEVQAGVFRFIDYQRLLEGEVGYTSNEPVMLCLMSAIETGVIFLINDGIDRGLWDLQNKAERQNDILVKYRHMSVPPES

[7] = target: T7, CsgG Y51S/N55V/F56Q/N91R/K94Q/R97W-del(V105-I107) pore containing the C terminal strep tag (E. coli, UniProt P0AEA2 16-277); test: pore 8; in vitro reconstitution; DNA translocation, signal:noise
T7 construct: also called Y515/N55V/F56Q/N91R/K94Q/R97W-del(V105-I107) (sic); not shown: C-terminal Strep tag
T7 chain: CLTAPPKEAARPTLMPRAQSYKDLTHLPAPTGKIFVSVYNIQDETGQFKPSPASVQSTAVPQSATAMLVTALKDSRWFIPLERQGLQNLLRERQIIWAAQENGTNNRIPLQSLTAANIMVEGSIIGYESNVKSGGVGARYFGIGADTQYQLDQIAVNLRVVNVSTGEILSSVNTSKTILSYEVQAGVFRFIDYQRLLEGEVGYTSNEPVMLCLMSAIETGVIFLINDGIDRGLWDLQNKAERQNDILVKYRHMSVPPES

[8] = target: T8, CsgG Y51A/F56Q/N91R/K94Q/R97W/R192D-del(V105-I107) pore (E. coli, UniProt P0AEA2 16-277); test: last panel; reader head discrimination from DNA translocation
T8 chain: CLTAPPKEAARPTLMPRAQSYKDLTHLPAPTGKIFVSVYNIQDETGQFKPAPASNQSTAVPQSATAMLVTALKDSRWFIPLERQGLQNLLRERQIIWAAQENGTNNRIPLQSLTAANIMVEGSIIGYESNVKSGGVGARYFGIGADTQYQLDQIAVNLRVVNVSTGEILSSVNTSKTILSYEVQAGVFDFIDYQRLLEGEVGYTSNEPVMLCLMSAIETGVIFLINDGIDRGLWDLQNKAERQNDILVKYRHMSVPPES

Measured: binding result

B1: CsgF-(1-35) synthetic peptide (peptide)
peptide: GTMTFQFRNPNFGGNPNNGAFLLNSAQAQNSYKDP
notes: also called CsgF (1-35) peptide
binds: [1] | [2] | [3] | [4] | [5] | [6] | [7]

B2: CsgF-N17S-(1-45) peptide (peptide)
peptide: GTMTFQFRNPNFGGNPSNGAFLLNSAQAQNSYKDPSYNDDFGIET
binds: [8]
